Laboratory results taken from paper PMC5278397, “Discovery of a junctional epitope antibody that stabilizes IL-6 and gp80 protein:protein interaction and modulates its downstream signaling” (Scientific Reports, 2017).
Where a chain is given by its changes, count along the chain named. In names and notes the source's numbering stands. Blank lines part the entries; values can stand above or below the binder they belong to.

Tests used:
[1] = biological target: T1, IL-6–gp80 complex (IL-6 with gp80V4) (Homo sapiens, UniProt P05231;PDB); assay: SPR; His-tagged VHH6 or mutants captured from 1:5 diluted supernatants on a nickel charged NTA chip; equimolar mixture of IL-6 and gp80 (50 nM each) injected for 300 s at 10 μl/min, dissociation 300 s; BIAcore 3000; 25 °C, HBS-P+; conditions: one partner purified
T1 construct: interleukin-6 (IL-6), as m2; also called equimolar mixture of IL-6 and gp80
T1 sequence (P05231 28-212, one chain of several): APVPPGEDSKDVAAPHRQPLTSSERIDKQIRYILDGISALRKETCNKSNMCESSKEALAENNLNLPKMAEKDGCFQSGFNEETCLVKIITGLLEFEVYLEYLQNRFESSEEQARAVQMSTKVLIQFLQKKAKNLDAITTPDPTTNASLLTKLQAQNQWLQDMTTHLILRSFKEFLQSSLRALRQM

IL-6 with gp80-hscFc = biological target: T2, IL-6 with gp80-hscFc (UniProt P05231;P08887); assay: ELISA; IL-6 coated overnight and VHH6 added with gp80-hscFc, or gp80-hscFc coated overnight and VHH6 added with IL-6
T2 construct: interleukin-6 (IL-6), as m2; gp80 of gp80-hscFc, as m4; also called IL-6–gp80 complex (ELISA); source: one partner coated on the plate, the other added together with VHH6
T2 sequence (P05231 30-212, chain 1 of 2): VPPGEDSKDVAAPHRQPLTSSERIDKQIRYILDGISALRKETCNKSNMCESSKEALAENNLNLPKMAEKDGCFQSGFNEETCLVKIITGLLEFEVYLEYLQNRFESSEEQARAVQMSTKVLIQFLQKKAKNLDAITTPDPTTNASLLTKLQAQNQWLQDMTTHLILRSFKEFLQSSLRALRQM
T2 sequence (P08887 20-468, chain 2 of 2): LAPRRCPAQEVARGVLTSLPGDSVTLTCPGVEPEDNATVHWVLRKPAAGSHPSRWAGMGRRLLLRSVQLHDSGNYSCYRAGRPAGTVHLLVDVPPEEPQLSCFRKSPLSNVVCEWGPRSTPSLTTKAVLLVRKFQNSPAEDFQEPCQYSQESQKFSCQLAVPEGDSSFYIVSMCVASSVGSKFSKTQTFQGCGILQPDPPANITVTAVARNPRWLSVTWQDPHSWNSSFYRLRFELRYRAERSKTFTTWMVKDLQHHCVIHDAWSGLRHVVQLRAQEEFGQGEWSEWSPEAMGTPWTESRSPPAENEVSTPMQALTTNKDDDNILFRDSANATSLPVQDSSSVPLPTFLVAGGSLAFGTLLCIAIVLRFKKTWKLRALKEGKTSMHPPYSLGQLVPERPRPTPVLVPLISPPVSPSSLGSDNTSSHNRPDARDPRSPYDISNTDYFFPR

[2] = biological target: T3, IL-6–gp80 complex (gp80 construct not stated) (Homo sapiens, UniProt P05231;P08887); assay: BLI; VHH6 captured through its His-tag on Ni-NTA tips; FusionIL-6, IL-6, gp80 and IL-6+gp80 in solution; Octet 384 Red; conditions: both partners purified
T3 construct: interleukin-6 (IL-6), as m2; gp80, as m5; also called dimeric complex IL-6–gp80; source: mixture of IL-6 and gp80

gp80 = biological target: T4, gp80 (Homo sapiens, UniProt P08887); assay: as above; conditions: both partners purified
T4 construct: IL-6 receptor gp80 (CD126), soluble; also called CD126; IL-6 specific receptor

IL-6-NT647+gp80 = biological target: T5, IL-6-NT647+gp80 (Homo sapiens, UniProt P05231;P08887, NT647 dye on primary amines of lysine residues (NHS ester)); assay: MST; IL-6 or gp80 labelled with NT647, alone (VHH6 titrated up to 20 μM) or mixed with the unlabelled partner (10 nM IL-6NT647 and 20 nM gp80; VHH6 titrated in); Monolith NT.115, red channel; conditions: both partners purified
T5 construct: interleukin-6 (IL-6), as m8; gp80, as m5; also called mixture of IL-6-NT647 and gp80; source: mixture of 10 nM IL-6NT647 and 20 nM gp80
T5 sequence (P05231 30-212, chain 1 of 2): as the sequence (P05231 30-212, chain 1 of 2) above
T5 sequence (P08887 20-468, chain 2 of 2): as the sequence (P08887 20-468, chain 2 of 2) above

gp80-NT647+IL-6 = biological target: T6, gp80-NT647+IL-6 (Homo sapiens, UniProt P08887;P05231, NT647 dye on primary amines of lysine residues (NHS ester)); assay: as above; conditions: both partners purified
T6 construct: gp80, as m9; interleukin-6 (IL-6), as m2; also called mixture of gp80-NT647 and IL-6; source: mixture of labelled gp80 and IL-6
T6 sequence (P08887 20-468, chain 1 of 2): as the sequence (P08887 20-468, chain 2 of 2) above
T6 sequence (P05231 30-212, chain 2 of 2): as the sequence (P05231 30-212, chain 1 of 2) above

IL-6-NT647 = biological target: T7, IL-6-NT647 (UniProt P05231, NT647 dye on primary amines of lysine residues (NHS ester)); assay: as above; conditions: both partners purified
T7 construct: interleukin-6 (IL-6); also called IL-6 labelled with NT647; source: labelled with the Monolith labelling Red NHS kit
T7 sequence (P05231 30-212): as the sequence (P05231 30-212, chain 1 of 2) above

gp80-NT647 = biological target: T8, gp80-NT647 (Homo sapiens, UniProt P08887, NT647 dye on primary amines of lysine residues (NHS ester)); assay: as above; conditions: both partners purified
T8 construct: IL-6 receptor gp80 (CD126); also called gp80 labelled with NT647; source: labelled with the Monolith labelling Red NHS kit
T8 sequence (P08887 20-468): as the sequence (P08887 20-468, chain 2 of 2) above

gp80-hscFc = biological target: T9, gp80-hscFc (UniProt P08887); assay: ELISA; IL-6, gp80 or FusionIL-6 coated at 2 μg/mL in carbonate buffer overnight at 4 °C; supernatant from HEK cells or purified VHHs added; anti-llama-HRP or anti-His-HRP; includes the initial screen
T9 construct: IL-6 receptor gp80 (CD126); hscFc is not explained in the text
T9 sequence (P08887 20-365): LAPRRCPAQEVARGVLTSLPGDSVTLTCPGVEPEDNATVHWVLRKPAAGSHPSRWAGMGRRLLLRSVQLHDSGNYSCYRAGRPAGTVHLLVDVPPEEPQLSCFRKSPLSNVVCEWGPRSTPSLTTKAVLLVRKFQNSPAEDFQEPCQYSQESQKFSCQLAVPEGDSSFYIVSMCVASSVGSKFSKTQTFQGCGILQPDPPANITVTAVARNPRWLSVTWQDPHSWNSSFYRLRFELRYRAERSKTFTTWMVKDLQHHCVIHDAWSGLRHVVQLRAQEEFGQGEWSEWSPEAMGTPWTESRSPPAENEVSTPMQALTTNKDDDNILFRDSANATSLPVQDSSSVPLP

IL-6 = biological target: T10, IL-6 (UniProt P05231 49-212); assay: SPR; IL-6 amine-coupled on CM5; gp80 (gp80V4) injected at 50 nM, 30 μl/min, 180 s, dissociation 360 s; 25 °C, HBS-P+; BIAcore 3000; without VHH6; conditions: both partners purified
T10 construct: interleukin-6 (IL-6); Two in-house constructs are named (IL-6 and IL-6S21); IL-6 bought from R&D Systems was used 'for in vitro experiments'; source: E. coli, produced in house, purified

B1: VHH6 Y27A mutant (VHH)
VHH: DVQFVESGGGSVHAGGSLRLNCATSGAIYSTYCMGWFRQAPGKEREGVAHIYTNSGRTYYADSVKGRFTISQDNAKNTVYLQMNSLKPEDTAIYYCAARPSIRCASFSATEYKDWGQGTQVTVSS
notes: source: Expi-HEK cells, small scale transient expression, in supernatant; not shown: His6 (TEV-6His), C-terminal, kept
fold increase of the dissociation rate against VHH6 [1]: 1.9 fold

B2: VHH6 double mutant Asn74Ala/Ser101Ala (VHH)
VHH: B1 VHH with A27Y, N74A, S101A
notes: also called double mutant 74/101; source: Expi-HEK cells, small scale transient expression, in supernatant; not shown: His6 (TEV-6His), C-terminal, kept
fold increase of the dissociation rate against VHH6 [1]: 3.8 fold

B3: VHH6 double mutant Ser101Ala/Lys113Ala (VHH)
VHH: B1 VHH with A27Y, S101A, K113A
notes: also called double mutant 113/101; source: Expi-HEK cells, small scale transient expression, in supernatant; not shown: His6 (TEV-6His), C-terminal, kept
fold increase of the dissociation rate against VHH6 [1]: 4.3 fold

Now from value to binder:

binding result (IL-6 with gp80-hscFc): binds
binding result [2]: binds
binding result (gp80): no binding
binding result (IL-6-NT647+gp80): binds
binding result (gp80-NT647+IL-6): binds
binding result (IL-6-NT647): no binding (tested: up to 20 μM VHH6)
binding result (gp80-NT647): no binding (tested: up to 20 μM VHH6)
binding result (gp80-hscFc): no binding
B4: VHH6 (VHH)
VHH: B1 VHH with A27Y
notes: camelid single domain antibody; The His tag is named on VHH6 for the Octet and the NTA-chip SPR; also called locking antibody; source: Expi-HEK cells, transiently transfected; in supernatant (SPR on the NTA chip) or purified; not shown: His6 (TEV-6His), C-terminal, kept

koff (IL-6): 0.045 s⁻¹
B5: gp80V4 (receptor)
chain: GLAPRRCPAQEVARGAGAGDVPPEEPQLSCFRKSPLSNVVCEWGPRSTPSLTTKAVLLVRKFQNSPAEDFQEPCQYSQESQKFSCQLAVPEGDSSFYIVSMCVASSVGSKFSKTQTFQGAGILQPDPPANITVTAVARNPRWLSVTWQDPHSWNSSFYRLRFELRYRAERSKTFTTWMVKDLQHHAVIHDAWSGLRHVVQLRAQEEFGQGEWSEWSPEAMGTPWTESRSPP
modifications: N-glycosylated, high-mannose (Expi-HEK/CHO with kifunensine) for crystallography and HDX-MS. The limits and engineered changes are not given, so they are taken from the deposited 5FUC entity 2: D1 …
